{
  "source": "paper PMC5797019",
  "about": "“Peptide inhibition of the SETD6 methyltransferase catalytic activity” (Oncotarget, 2017)",
  "target": "GST-SETD6 (UniProt Q8TBK2)",
  "sequence (Q8TBK2 whole entry)": "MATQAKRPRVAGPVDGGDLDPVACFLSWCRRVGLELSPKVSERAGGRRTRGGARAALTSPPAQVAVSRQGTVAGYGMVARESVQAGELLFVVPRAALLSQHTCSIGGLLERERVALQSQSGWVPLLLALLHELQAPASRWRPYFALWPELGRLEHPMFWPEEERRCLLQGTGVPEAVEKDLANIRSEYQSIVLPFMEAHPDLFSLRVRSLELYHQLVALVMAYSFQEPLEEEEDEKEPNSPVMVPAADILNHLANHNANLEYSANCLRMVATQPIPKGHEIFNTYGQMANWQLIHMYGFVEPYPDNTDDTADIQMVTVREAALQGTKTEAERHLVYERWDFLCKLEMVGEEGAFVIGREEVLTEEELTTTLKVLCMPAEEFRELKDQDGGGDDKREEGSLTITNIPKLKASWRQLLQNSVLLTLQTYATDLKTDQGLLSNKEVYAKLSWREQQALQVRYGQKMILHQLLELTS",
  "data": [
    {"substance": "vp22-RelA302-316 peptide (from UniProt Q04206 302-316)", "values": [
      {"measurement": "auto-methylation signal of recombinant GST-SETD6 (in vitro methylation assay with 3H-labeled S-adenosyl methionine) with increasing amounts of vp22-RelA; significant reduction at 0.5 μM", "value": 2, "unit": "µM"}
    ]}
  ]
}
